Data on one molecule can be found in patent US20200299413A1 (BIOMUNEX PHARMACEUTICALS, published 2020).

This test deals with CD38 on RPMI-8226 multiple myeloma cells (UniProt P28907 1-300, limits assumed). Kind of test: cell-based or functional assay.

B1: parental anti-CD38 mAb (daratumumab) (antibody, V domains shown)
VH: EVQLLESGGGLVQPGGSLRLSCAVSGFTFNSFAMSWVRQAPGKGLEWVSAISGSGGGTYYADSVKGRFTISRDNSKNTLYLQMNSLRAEDTAVYFCAKDKILWFGEPVFDYWGQGTLVTVSS
VL: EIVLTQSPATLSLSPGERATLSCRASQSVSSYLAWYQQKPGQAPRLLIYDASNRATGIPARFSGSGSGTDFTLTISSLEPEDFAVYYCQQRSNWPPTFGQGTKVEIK
Regarding B1, the “ADCC (51Chromium release) EC50 on RPMI-8226 cells, non-pre-activated MNC effectors” value was 300 pM.
